The target of this test is T1, recombinant human RANK-hFc fusion protein (human, UniProt Q9Y6Q6 30-212, limits assumed).
T1 construct: also called hRANK; not shown: human Fc (hFc)
T1 sequence (looked up): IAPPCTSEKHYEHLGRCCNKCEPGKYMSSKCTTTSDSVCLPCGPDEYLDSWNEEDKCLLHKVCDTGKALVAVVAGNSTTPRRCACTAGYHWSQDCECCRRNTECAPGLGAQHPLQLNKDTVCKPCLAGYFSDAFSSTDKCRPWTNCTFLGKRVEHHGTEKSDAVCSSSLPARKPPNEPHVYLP
As to the kind of experiment: ELISA, human RANKL coated at 10 µg/ml, anti-hFc-HRP detection. The protocol:
To test whether the antibodies generated in mice have neutralizing activity, in vitro binding assays for both mouse and human RANKL and their cognate receptors mouse RANK and human RANK were established. ELISA plates were therefore coated with 10 μg/ml of either mouse or human RANKL protein and incubated with serial dilutions of a recombinant mouse RANK-hFc fusion protein or a recombinant human RANK-hFc fusion protein, respectively. Bound protein was detected with a horse raddish peroxidase conjugated anti-hFc antibody. […] ELISA plates were therefore coated with either mouse or human RANKL protein at a concentration of 10 μg/ml, and co-incubated with serial dilutions of a pool of mouse sera from day 35 and 0.35 nM mouse or human RANK-hFc fusion protein, respectively. Binding of receptor to immobilized RANKL protein was detected with horse raddish peroxidase conjugated anti-hFc antibody.
Background: In an ELISA, binding on a coated surface is turned into a signal by an enzyme label.

B1: human RANKL protein (ligand, UniProt O14788 140-317, looked up)
chain: IRAEKAMVDGSWLDLAKRSKLEAQPFAHLTINATDIPSGSHKVSLSSWYHDRGWAKISNMTFSNGKLIVNQDGFYYLYANICFRHHETSGDLATEYLQLMVYVTKTSIKIPSSHTLMKGGSTKYWSGNSEFHFYSINVGGFFKLRSGEEISIEVSNPSLLDPDQDATYFGAFKVRDID
notes: Coated on ELISA plates; also called hRANKL
Turning to B1, the binding result is recorded as “binds”.

The values above are taken from US20080019991A1 (CYTOS BIOTECHNOLOGY, published 2008).
